Experimental data: US20230181672
Numbering of substitutions follows the chain as printed. Names and notes keep the numbering of the source.

B1: FLAG-SIRT1 (Addgene, 1791) (protein)
chain: MADEAALALQPGGSPSAAGADREAASSPAGEPLRKRPRRDGPGLERSPGEPGGAAPEREVPAAARGCPGAAAAALWREAEAEAAAAGGEQEAQATAAAGEGDNGPGLQGPSREPPLADNLYDEDDDDEGEEEEEAAAAAIGYRDNLLFGDEIITNGFHSCESDEEDRASHASSSDWTPRPRIGPYTFVQQHLMIGTDPRTILKDLLPETIPPPELDDMTLWQIVINILSEPPKRKKRKDINTIEDAVKLLQECKKIIVLTGAGVSVSCGIPDFRSRDGIYARLAVDFPDLPDPQAMFDIEYFRKDPRPFFKFAKEIYPGQFQPSLCHKFIALSDKEGKLLRNYTQNIDTLEQVAGIQRIIQCHGSFATASCLICKYKVDCEAVRGDIFNQVVPRCPRCPADEPLAIMKPEIVFFGENLPEQFHRAMKYDKDEVDLLIVIGSSLKVRPVALIPSSIPHEVPQILINREPLPHLHFDVELLGDCDVIINELCHRLGGEYAKLCCNPVKLSEITEKPPRTQKELAYLSELPPTPLHVSEDSSSPERTSPPDSSVIVTLLDQAAKSNDDLDVSESKGCMEEKPQEVQTSRNVESIAEQMENPDLKNVGSSTGEKNERTSVAGTVRKCWPNRVAKEQISRRLDGNQYLFLPPNRYIFHGAEVYSDSEDDVLSSSSCGSNSDSGTCQSPSLEEPMEDESEIEEFYNGLEDEPDVPERAGGAGFGTDGDDQEAINEAISVKQEVTDMNYPSNKS
B2: methylmalonylated K4R mutated SIRT5-FLAG (protein)
chain: SSSMADFRKFFAKAKHIVIISGAGVSAESGVPTFRGAGGYWRRWQAQDLATPLAFAHNPSRVWEFYHYRREVMGSREPNAGHRAIAECETRLGKQGRRVVVITQNIDELHRRAGTRNLLEIHGSLFKTRCTSCGVVAENYKSPICPALSGKGAPEPGTQDASIPVEKLPRCEEAGCGGLLRPHVVWFGENLDPAILEEVDRELAHCDLCLVVGTSSVVYPAAMFAPQVAARGVPVAEFNTETTPATNRFRFHFQGPCGTTLPEALACHENETVSEFGGDYKDDDDK
B3: SIRT5-FLAG (Addgene, 13816) (protein)
chain: B2 chain with R43K, R76K, R112K, R116K
B4: propionylated SIRT5-FLAG (protein)
chain: B2 chain with R43K, R76K, R112K, R116K
B5: K4R mutated SIRT5-FLAG (protein)
chain: B2 chain

Columns and labels:
[1] = molecular target: methylmalonylated BSA, P02769
Sequence of methylmalonylated BSA, P02769 (P02769 25-607): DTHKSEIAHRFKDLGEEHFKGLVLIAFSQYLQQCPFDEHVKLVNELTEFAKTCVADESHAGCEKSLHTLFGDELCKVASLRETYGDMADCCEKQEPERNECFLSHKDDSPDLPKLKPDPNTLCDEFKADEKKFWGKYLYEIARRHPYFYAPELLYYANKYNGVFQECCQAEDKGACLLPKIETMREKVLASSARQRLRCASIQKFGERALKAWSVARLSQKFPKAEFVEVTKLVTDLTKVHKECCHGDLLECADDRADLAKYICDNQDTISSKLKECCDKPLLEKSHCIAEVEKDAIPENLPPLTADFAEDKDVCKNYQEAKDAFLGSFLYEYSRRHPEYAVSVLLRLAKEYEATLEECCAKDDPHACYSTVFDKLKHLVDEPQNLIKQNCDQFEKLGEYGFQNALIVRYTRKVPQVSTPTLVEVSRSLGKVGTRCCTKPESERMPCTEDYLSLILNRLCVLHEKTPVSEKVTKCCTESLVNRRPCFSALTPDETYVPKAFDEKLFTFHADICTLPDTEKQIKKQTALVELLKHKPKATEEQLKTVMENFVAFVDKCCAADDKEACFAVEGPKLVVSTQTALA

[2] = molecular target: propionylated BSA, P02769
Sequence of propionylated BSA, P02769 (P02769 25-607): as above

Cps1 (Mmut-/-;TgMCKMmut) = molecular target: T1, Cps1 (Mmut-/-;TgMCKMmut)
T1 sequence (Q8C196 39-1500, looked up): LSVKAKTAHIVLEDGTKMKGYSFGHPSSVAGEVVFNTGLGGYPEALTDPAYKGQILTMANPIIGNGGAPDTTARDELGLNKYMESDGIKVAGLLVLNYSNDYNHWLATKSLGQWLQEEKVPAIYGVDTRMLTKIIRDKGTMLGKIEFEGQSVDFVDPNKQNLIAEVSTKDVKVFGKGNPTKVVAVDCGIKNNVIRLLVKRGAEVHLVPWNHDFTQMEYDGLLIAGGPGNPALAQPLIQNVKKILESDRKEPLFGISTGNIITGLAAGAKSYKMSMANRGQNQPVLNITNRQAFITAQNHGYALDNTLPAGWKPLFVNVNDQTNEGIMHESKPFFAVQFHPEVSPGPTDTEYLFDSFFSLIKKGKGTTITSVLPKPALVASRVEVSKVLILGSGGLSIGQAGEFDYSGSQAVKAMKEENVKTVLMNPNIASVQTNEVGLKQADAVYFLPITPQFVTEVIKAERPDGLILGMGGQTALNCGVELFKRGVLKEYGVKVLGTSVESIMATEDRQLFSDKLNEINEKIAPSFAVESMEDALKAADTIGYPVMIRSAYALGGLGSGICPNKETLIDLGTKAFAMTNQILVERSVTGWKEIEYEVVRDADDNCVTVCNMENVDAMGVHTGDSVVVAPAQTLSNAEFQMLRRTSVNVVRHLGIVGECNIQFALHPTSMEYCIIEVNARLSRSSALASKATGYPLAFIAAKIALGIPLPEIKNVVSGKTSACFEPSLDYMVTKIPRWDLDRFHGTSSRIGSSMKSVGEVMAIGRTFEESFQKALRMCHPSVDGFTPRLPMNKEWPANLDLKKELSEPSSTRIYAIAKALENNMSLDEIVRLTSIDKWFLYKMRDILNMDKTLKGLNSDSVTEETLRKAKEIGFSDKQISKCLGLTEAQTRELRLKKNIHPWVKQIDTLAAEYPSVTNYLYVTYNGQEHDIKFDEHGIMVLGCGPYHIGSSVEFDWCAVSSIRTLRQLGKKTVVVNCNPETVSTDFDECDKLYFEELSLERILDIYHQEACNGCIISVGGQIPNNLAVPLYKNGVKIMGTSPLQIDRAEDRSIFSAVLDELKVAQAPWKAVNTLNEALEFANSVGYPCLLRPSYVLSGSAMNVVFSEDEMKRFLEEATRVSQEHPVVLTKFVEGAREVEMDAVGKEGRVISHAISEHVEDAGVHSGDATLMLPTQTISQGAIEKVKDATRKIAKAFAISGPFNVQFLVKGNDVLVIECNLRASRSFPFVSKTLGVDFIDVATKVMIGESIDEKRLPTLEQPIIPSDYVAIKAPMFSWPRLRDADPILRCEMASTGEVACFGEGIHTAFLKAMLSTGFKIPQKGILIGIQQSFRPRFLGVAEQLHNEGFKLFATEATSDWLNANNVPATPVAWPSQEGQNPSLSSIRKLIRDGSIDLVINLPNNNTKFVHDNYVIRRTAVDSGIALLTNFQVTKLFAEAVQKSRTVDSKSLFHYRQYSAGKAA

| Protein | removal of methylmalonylation from methylmalonylated BSA (in vitro deacylation assay, Western blot) [1] | depropionylation of propionylated BSA (in vitro deacylation assay, Western blot) [2] | stated: methylmalonylation of immunoprecipitated Cps1 reduced (AP42053 immunoblot) (Cps1 (Mmut-/-;TgMCKMmut)) |
| --- | --- | --- | --- |
| B1 | SIRT1 (FIG. 13A) and SIRT5 (FIG. 13B) were the most effective at removing methylmalonylation from the methylmalonylated BSA substrates | – | – |
| B2 | SIRT5 K4R did not exhibit enzymatic inhibition after hyper-methylmalonylation/acylation modifications | – | – |
| B3 | – | SIRT5 mediates the depropionylation of BSA substrate | – |
| B4 | – | this activity is impaired when SIRT5 is propionylated | – |
| B5 | mutant SIRT5 K4R had the ability to remove methylmalonylation from BSA regardless of whether SIRT5 K4R was acylated or not | – | AP42053 bands at about 150 kDa are faint in the 2 SuperSIRT5-AAV Mmut-/- lanes and clear in the 2 GFP-AAV Mmut-/- lanes, with like Cps1 bands; the FLAG blot of the extracts shows SuperSIRT5-FLAG below 37 kDa only in the SuperSIRT5-AAV lanes |
